Holding throughout (assay): cryo-EM structure; BlaR1 in LMNG, purified by GraDeR glycerol gradient, desalted into 150 mM sodium chloride, 20 mM HEPES pH 7.5; grids blotted at 4 °C; BlaR1(F284A) also with ampicillin (1 mM, then 250 µM)
Experiment [1] has as its target S. aureus BlaR1 F284A mutant (BlaR1(F284A)) (S. aureus) (UniProt Q00419).
The target in experiment [2] is S. aureus BlaR1 F284A mutant acylated with ampicillin (BlaR1(F284A)–ampicillin) (S. aureus) (UniProt Q00419).
In experiment [3] the target is S. aureus BlaR1, wild type (BlaR1(WT)) (S. aureus) (UniProt Q00419).

The stoichiometry N is the number of molecules, sites or subunits per partner or assembly. Turning to “S. aureus BlaR1 F284A mutant (BlaR1(F284A)) (from UniProt Q00419 1-585) (receptor)”, the stoichiometry N in experiment [1] is 2.

Take “S. aureus BlaR1 F284A mutant acylated with ampicillin (BlaR1(F284A)–ampicillin) (from UniProt Q00419 1-585) (receptor)”: in experiment [2], the stoichiometry N was 2.

As to “S. aureus BlaR1, wild type (BlaR1(WT)) (from UniProt Q00419 1-585) (receptor)”, the stoichiometry N in experiment [3] stood at 2.
